The numbers were not newly measured in publication PMC13428679, which cites them from elsewhere.

The target in data set [1] is Skp1 (Dictyostelium discoideum) (UniProt P52285).
In data set [2] the target is Fbs1 (Cavia porcellus).
Fbs1 (Cavia porcellus), sequence (Q80UW2 whole entry): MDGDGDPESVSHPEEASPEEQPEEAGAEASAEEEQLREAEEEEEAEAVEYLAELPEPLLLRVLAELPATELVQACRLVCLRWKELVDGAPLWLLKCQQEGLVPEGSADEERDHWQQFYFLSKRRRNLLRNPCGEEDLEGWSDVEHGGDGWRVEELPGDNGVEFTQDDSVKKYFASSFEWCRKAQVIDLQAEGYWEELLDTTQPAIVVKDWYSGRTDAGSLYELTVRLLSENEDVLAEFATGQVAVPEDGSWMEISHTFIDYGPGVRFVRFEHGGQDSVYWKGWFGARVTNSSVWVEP

As to Skp1 (from UniProt P52285), in data set [1], the Kd is 2.5 µM.

As for Skp1 (from UniProt P63208), in data set [2], the Kd is 25 µM.

As a reminder, the Kd is the free concentration of one partner at which half of the binding sites on the other are occupied at equilibrium, for simple one-to-one binding.
